Measurements as given in US5877009, “Isolated ApoA-I gene regulatory sequence elements” (Trustees of Boston University).

Assays:
[1] = biological target: T1, C/EBP (C/EBPalpha) (Rattus norvegicus, UniProt P05554 P05554:1-358); experiment: EMSA; C/EBP-BA3 complex; conditions: tags: E. coli pT7-7, about 40 kDa; chain copies: 2; label: 32P
[2] = biological target: T1, C/EBP (C/EBPalpha); experiment: EMSA; conditions: tags: E. coli pT7-7, about 40 kDa, chain copies: 2
[3] = biological target: T1, C/EBP (C/EBPalpha); experiment: EMSA; text cites SEQ ID NO:41, Table 3 lists AlbD as SEQ ID NO:47; conditions: tags: E. coli pT7-7, about 40 kDa; chain copies: 2; label: 32P

T1 sequence (P05554 whole entry, one chain of several): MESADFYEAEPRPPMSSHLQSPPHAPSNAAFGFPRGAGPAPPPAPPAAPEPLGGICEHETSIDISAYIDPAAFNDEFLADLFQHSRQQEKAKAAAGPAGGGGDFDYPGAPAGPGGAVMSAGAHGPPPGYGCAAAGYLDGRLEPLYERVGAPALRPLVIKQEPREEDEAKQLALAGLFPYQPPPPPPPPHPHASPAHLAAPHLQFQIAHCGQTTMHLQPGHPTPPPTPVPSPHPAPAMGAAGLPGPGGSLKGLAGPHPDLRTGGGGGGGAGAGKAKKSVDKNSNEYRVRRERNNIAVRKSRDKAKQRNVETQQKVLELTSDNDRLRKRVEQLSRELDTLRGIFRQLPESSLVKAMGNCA

B1: BA3 apoB -78 to -48 (dsDNA)
DNA 1: GCCCTTTGGACCTTTTGCAATCCTGGCGCT
DNA 2: AGCGCCAGGATTGCAAAAGGTCCAAAGGGC
B1: binds [1].

B2: apoA-II element K (-760 to -743) (dsDNA)
DNA 1: TAAGGTGATCAAATGACC
DNA 2: GGTCATTTGATCACCTTA
B2: no binding [2].

B3: Albumin D C/EBP site (AlbD, -115 to -90) (dsDNA)
DNA 1: TGGTATGATTTTGTAATGGGGTAGGA
DNA 2: TCCTACCCCATTACAAAATCATACCA
B3: binds [3].

B4: CIIIB(WT) apoCIII -92 to -67 (dsDNA)
DNA 1: GGTCAGCAGGTGACCTTTGCCCAGCG
DNA 2: CGCTGGGCAAAGGTCACCTGCTGACC
B4: no binding ([2]; label: 32P, GGG/CCC 5' overhangs).
